Laboratory results as given in publication PMC9352680, “A comprehensive thermodynamic model for RNA binding by the Saccharomyces cerevisiae Pumilio protein PUF4”.

T1: PUF4 RNA-binding domain (Saccharomyces cerevisiae, UniProt P25339 537-888)
T1 sequence: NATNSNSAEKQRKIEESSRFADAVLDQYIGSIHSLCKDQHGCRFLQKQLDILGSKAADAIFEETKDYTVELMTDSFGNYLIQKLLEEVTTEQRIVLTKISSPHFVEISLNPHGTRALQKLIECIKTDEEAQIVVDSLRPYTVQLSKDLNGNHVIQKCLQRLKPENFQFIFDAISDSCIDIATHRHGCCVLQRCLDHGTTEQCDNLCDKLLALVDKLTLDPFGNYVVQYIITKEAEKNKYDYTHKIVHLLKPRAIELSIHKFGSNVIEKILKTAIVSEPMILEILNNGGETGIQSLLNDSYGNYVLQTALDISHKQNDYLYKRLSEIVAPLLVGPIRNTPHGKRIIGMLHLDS


Biological target: T1, PUF4 RNA-binding domain
Test: Mg; RNA-MaP; 20 mM Na-HEPES pH 7.4, 30 mM KOAc, 0.75 mM MgCl2, 0.1% Tween-20, 5% glycerol, 0.1 mg/mL BSA, 2 mM DTT; 25 C; 0.0125-409.6 nM protein
Settings: tags: N-His6-TEV cleaved; C-SNAP kept, Cy3B-labelled; label: tethered on chip by stalled RNA polymerase

| Binder | Kd [nM] |
| --- | --- |
| UCUCUUUGUACCGUUUCUCUU (ssRNA) [Ic_S1_P4E.1_K4.1_C4.1_H4.1_A4.1_[T5C]_[A6C]_[T7G]_F4.1_[A9T]_T4.1] | 142 |
| UCUCUUUGUACGCGCUCUCUU (ssRNA) [Ic_S1_P4E.1_K4.1_C4.1_H4.1_A4.1_[T5C]_[A6G]_[T7C]_F4.1_[T8G]_[A9C]_T4.1] | 1130 |
| UCUCUUUGUACCCAGUCUCUU (ssRNA) [Ic_S1_P4E.1_K4.1_C4.1_H4.1_A4.1_[T5C]_[A6C]_[T7C]_F4.1_[T8A]_[A9G]_T4.1] | 1230 |
| UCUCUUUCUAUACAUCUCUU (ssRNA) [Ib_S1_P3E.1_K3.1_C3.1_H3.1_[G2C]_A3.1_F3.1_[T7C]_T3.1] | > 2300 |
| UCUCUUUGUACGCCUUCUCUU (ssRNA) [Ic_S1_P4E.1_K4.1_C4.1_H4.1_A4.1_[T5C]_[A6G]_[T7C]_F4.1_[T8C]_[A9T]_T4.1] | 777 |
| UCUCUUUGUACCCCGUCUCUU (ssRNA) [Ic_S1_P4E.1_K4.1_C4.1_H4.1_A4.1_[T5C]_[A6C]_[T7C]_F4.1_[T8C]_[A9G]_T4.1] | > 2300 |
| UCUCUUUGUACGCGUUCUCUU (ssRNA) [Ic_S1_P4E.1_K4.1_C4.1_H4.1_A4.1_[T5C]_[A6G]_[T7C]_F4.1_[T8G]_[A9T]_T4.1] | 1440 |
| UCUCUUUGUACGCAAUCUCUU (ssRNA) [Ic_S1_P4E.1_K4.1_C4.1_H4.1_A4.1_[T5C]_[A6G]_[T7C]_F4.1_[T8A]_T4.1] | 139 |
| UCUCUUUGUACGCACUCUCUU (ssRNA) [Ic_S1_P4E.1_K4.1_C4.1_H4.1_A4.1_[T5C]_[A6G]_[T7C]_F4.1_[T8A]_[A9C]_T4.1] | 669 |
| UCUCUUUGUACCCAUUCUCUU (ssRNA) [Ic_S1_P4E.1_K4.1_C4.1_H4.1_A4.1_[T5C]_[A6C]_[T7C]_F4.1_[T8A]_[A9T]_T4.1] | 517 |
| UCUCUUUGUACCCCUUCUCUU (ssRNA) [Ic_S1_P4E.1_K4.1_C4.1_H4.1_A4.1_[T5C]_[A6C]_[T7C]_F4.1_[T8C]_[A9T]_T4.1] | 808 |
| UCUCUUUGUACGAUUUCUCUU (ssRNA) [Ic_S1_P4E.1_K4.1_C4.1_H4.1_A4.1_[T5C]_[A6G]_[T7A]_F4.1_[A9T]_T4.1] | 22.7 |
| UCUCUUUGUACCGCCUCUCUU (ssRNA) [Ic_S1_P4E.1_K4.1_C4.1_H4.1_A4.1_[T5C]_[A6C]_[T7G]_F4.1_[T8C]_[A9C]_T4.1] | 1630 |
| UCUCUUUGUACCAACUCUCUU (ssRNA) [Ic_S1_P4E.1_K4.1_C4.1_H4.1_A4.1_[T5C]_[A6C]_[T7A]_F4.1_[T8A]_[A9C]_T4.1] | 271 |
| UCUCUUUGUACGUGAUCUCUU (ssRNA) [Ic_S1_P4E.1_K4.1_C4.1_H4.1_A4.1_[T5C]_[A6G]_F4.1_[T8G]_T4.1] | 629 |
| UCUCUUUGUACCCUGUCUCUU (ssRNA) [Ic_S1_P4E.1_K4.1_C4.1_H4.1_A4.1_[T5C]_[A6C]_[T7C]_F4.1_[A9G]_T4.1] | 32.7 |

| Binder | Kd [nM] |
| --- | --- |
| UCUCUUUGUACGUAUUCUCUU (ssRNA) [Ic_S1_P4E.1_K4.1_C4.1_H4.1_A4.1_[T5C]_[A6G]_F4.1_[T8A]_[A9T]_T4.1] | 96.3 |
| UCUCUUUGUACGUCCUCUCUU (ssRNA) [Ic_S1_P4E.1_K4.1_C4.1_H4.1_A4.1_[T5C]_[A6G]_F4.1_[T8C]_[A9C]_T4.1] | 482 |
| UCUCUUUGUACCAGCUCUCUU (ssRNA) [Ic_S1_P4E.1_K4.1_C4.1_H4.1_A4.1_[T5C]_[A6C]_[T7A]_F4.1_[T8G]_[A9C]_T4.1] | 913 |
| UCUCUUUGUACCGUAUCUCUU (ssRNA) [Ic_S1_P4E.1_K4.1_C4.1_H4.1_A4.1_[T5C]_[A6C]_[T7G]_F4.1_T4.1] | 23.4 |
| UCUCUUUGUACCCUAUCUCUU (ssRNA) [Ic_S1_P4E.1_K4.1_C4.1_H4.1_A4.1_[T5C]_[A6C]_[T7C]_F4.1_T4.1] | 7.5 |
| UCUCUUUGUACCAAAUCUCUU (ssRNA) [Ic_S1_P4E.1_K4.1_C4.1_H4.1_A4.1_[T5C]_[A6C]_[T7A]_F4.1_[T8A]_T4.1] | 68 |
| UCUCUUUUUAUAAAUCUCUU (ssRNA) [Ib_S1_P3E.1_K3.1_C3.1_H3.1_[G2T]_A3.1_F3.1_[T7A]_T3.1] | > 2300 |
| UCUCUUUGUACCAAUUCUCUU (ssRNA) [Ic_S1_P4E.1_K4.1_C4.1_H4.1_A4.1_[T5C]_[A6C]_[T7A]_F4.1_[T8A]_[A9T]_T4.1] | 103 |
| UCUCUUUGUACGCUUUCUCUU (ssRNA) [Ic_S1_P4E.1_K4.1_C4.1_H4.1_A4.1_[T5C]_[A6G]_[T7C]_F4.1_[A9T]_T4.1] | 51 |
| UCUCUUUGUACCCUCUCUCUU (ssRNA) [Ic_S1_P4E.1_K4.1_C4.1_H4.1_A4.1_[T5C]_[A6C]_[T7C]_F4.1_[A9C]_T4.1] | 41.9 |
| UCUCUUUGUACGCGAUCUCUU (ssRNA) [Ic_S1_P4E.1_K4.1_C4.1_H4.1_A4.1_[T5C]_[A6G]_[T7C]_F4.1_[T8G]_T4.1] | 727 |
| UCUCUUUGUACGAACUCUCUU (ssRNA) [Ic_S1_P4E.1_K4.1_C4.1_H4.1_A4.1_[T5C]_[A6G]_[T7A]_F4.1_[T8A]_[A9C]_T4.1] | 985 |
| UCUCUUUGUACCAGGUCUCUU (ssRNA) [Ic_S1_P4E.1_K4.1_C4.1_H4.1_A4.1_[T5C]_[A6C]_[T7A]_F4.1_[T8G]_[A9G]_T4.1] | 1790 |
| UCUCUUUGUACCCAAUCUCUU (ssRNA) [Ic_S1_P4E.1_K4.1_C4.1_H4.1_A4.1_[T5C]_[A6C]_[T7C]_F4.1_[T8A]_T4.1] | 833 |
| UCUCUUUGUACCACCUCUCUU (ssRNA) [Ic_S1_P4E.1_K4.1_C4.1_H4.1_A4.1_[T5C]_[A6C]_[T7A]_F4.1_[T8C]_[A9C]_T4.1] | 573 |
| UCUCUUUGUACCGGCUCUCUU (ssRNA) [Ic_S1_P4E.1_K4.1_C4.1_H4.1_A4.1_[T5C]_[A6C]_[T7G]_F4.1_[T8G]_[A9C]_T4.1] | > 2300 |
